One molecule from paper PMC9200065 can be followed below.

The target in the series is T1, MBP-GLD-1(135-336) WT (C. elegans, UniProt Q17339 135-336).
T1 sequence: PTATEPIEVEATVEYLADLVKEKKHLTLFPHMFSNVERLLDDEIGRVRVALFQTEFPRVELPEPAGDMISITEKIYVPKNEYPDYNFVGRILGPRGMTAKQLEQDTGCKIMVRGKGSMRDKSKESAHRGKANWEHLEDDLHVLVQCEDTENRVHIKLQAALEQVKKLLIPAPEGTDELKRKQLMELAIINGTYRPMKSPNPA
Description: EMSA. For orientation: A gel shift assay detects complexes by their altered migration in electrophoresis.

Turning to UUUUUCUUAUUCUAGACUAAUAUUGUAAGCU (ssRNA) [glp-1 3'UTR fragment], the binding result is reported as “binds”.
